Results: patent US20100111851A1 (UNIVERSITY OF TOKYO, published 2010)

T1: human PRG-3 (without tag) on cells (human, UniProt Q8TBJ4 1-325)
T1 construct: also called PRG-3 protein; PRG-3/BaF3
T1 sequence: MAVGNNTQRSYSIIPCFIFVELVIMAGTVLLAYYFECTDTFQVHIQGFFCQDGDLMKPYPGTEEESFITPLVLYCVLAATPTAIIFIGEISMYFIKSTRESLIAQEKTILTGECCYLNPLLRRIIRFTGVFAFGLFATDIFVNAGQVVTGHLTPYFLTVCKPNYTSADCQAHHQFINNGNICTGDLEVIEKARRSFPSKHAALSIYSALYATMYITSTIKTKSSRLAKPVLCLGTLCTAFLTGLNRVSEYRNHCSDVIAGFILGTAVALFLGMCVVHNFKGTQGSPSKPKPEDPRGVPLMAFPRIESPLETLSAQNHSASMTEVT

T2: whole human PRG-3 with a C-terminal V5 tag, inducibly expressed on PRG-3/293T-Rex cells (human, UniProt Q8TBJ4 1-325)
T2 construct: Membrane protein with 6 transmembrane regions; also called PRG-3/293 cells; PRG3+/293 cells; not shown: V5 tag inserted at the C-terminus
T2 sequence: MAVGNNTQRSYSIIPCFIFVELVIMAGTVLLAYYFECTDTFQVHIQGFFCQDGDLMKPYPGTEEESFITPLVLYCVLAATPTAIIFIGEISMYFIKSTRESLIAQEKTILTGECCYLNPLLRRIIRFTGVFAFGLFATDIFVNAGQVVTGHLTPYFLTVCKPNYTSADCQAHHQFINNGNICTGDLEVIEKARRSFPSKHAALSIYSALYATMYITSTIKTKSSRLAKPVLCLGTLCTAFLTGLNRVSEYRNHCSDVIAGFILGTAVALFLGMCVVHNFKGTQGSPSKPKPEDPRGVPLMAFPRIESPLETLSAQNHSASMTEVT


Columns and labels:
[1] = biological target: T1, human PRG-3 (without tag) on cells; assay: flow cytometry, mixture of the two antibodies on Ba/F3 cells transfected with pMCN-PRG-3
Description: A Ba/F3 cell transformant line was established by gene transfer of the pMCN-PRG-3 expression vector constructed in example 2 into Ba/F3 cells, which is a murine pro B cell line, by electroporation under conditions of 0.33 kV and 950 μF. The Ba/F3 cells are IL-3 dependent cells, and they were cultured in RPMI-1640/10% FBS/penicillin-streptomycin containing 1 ng/mL IL-3. The cells that underwent gene transfer were selected by RPMI-1640/10% FBS/penicillin-streptomycin containing IL-3 and 500 μg/mL Geneticin® (Invitrogen). Cells expressing PRG-3 from the Geneticin®-resistant lines were selected by flow cytometry. […] Lines O-A5, O-D3, and O-F5 were established as Ba/F3 cell lines expressing PRG-3 (FIG. 6). Additionally, line O-F5 was cloned by the limiting dilution method and the OF5-G8 line with a high level of expression was also obtained.

[2] = biological target: T2, whole human PRG-3 with a C-terminal V5 …; assay: flow cytometry, hybridoma supernatant on PRG-3-induced against non-induced 293 cells
Description: The cell line expressing human PRG-3 suspended in FACS buffer (2% FBS/PBS) was diluted to 1×10⁶ cells/mL using FACS buffer, and aliquoted at 50 μL/well into a Falcon 353910 round-bottom 96-well plate. Hybridoma culture supernatant diluted to a suitable concentration was added to the wells containing the cells and reacted for 60 min on ice. Next, the cells were rinsed once with FACS buffer. Goat F(ab′)₂ fragment anti-mouse IgG (H+L)-FITC (Beckman Coulter) was added to the wells containing the cells as a secondary antibody, and reacted for 30 min on ice. The supernatant was removed by centrifugation after the reaction, and the cells suspended in 100 μL of FACS buffer were subjected to flow cytometry. A FACS Calibur (Becton Dickinson) was used for the flow cytometry. A gate for the viable cell population was established with a forward scatter-side scatter dot blot, an FL1 histogram was made of the cells contained in the population, and binding activity thereof was evaluated.

binding result [1] | binding result [2] | Binder
binds | binds | anti-PRG-3 monoclonal antibody 4F1 (antibody, mouse IgG2b, kappa, V domains shown, also called MR4F1) VH: QVQLQQPGAELVKPGASVKLSCKASGYTFTSYWMNWVKQRPGRGLEWIGKIHPSDSETHYNQKFKSKATLTVDKSSSTAYIQLNSLTSEDSAVYYCTRGYNNYLDYWGQGTTLTVSS VL: DIVLTQSPASLAVSLGQSVTISCRASESVEYYGTSLMQWYQQKPGQPPKLLIYGASNVESGVPARFSGSGSWTDFSLNIHPVEEDDIAIYFCQQSRKVPSTFGGGTKLEIKR
binds | binds | anti-PRG-3 monoclonal antibody 4F12 (antibody, mouse IgG2a, kappa, V domains shown, Tested as hybridoma culture supernatant and as protein G purified antibody; also called MR4F12) VH: QVQLQQPGAELVKPGASVKLSCKASGYTFTSYWMNWVKQRPGRGLEWIGKIHPSDSETHYNQKFKSKATLTVDKSSSTAYIQLSSLTSEDSAVYYCARGYSNYLDYWGQGTTLTVSS VL: DIVLTQSPASLAVSLGQRVTISCRASESVEYYGTSLMQWYQQKPGQPPKLLIYGASNVESGVPARFSGSGSGTDFSLNIHPVEEDDIAMYFCQQSRKVPSTFGGGTKLEIKR
